From patent publication US20210277118A1 (Daiichi Sankyo, published 2021)

B1: variant 21829, monovalent anti-CD3 scFv-heterodimeric Fc (VL hC3E-1_1L1d, VH hC3E-1(N53R)) (Fc fusion)
scFv: EVQLVESGGGLVQPGGSLRLSCAASGVTFNYYGMSWIRQAPGKGLEWVASITRSGGRIYYPDSVKGRFTISRENTQKTLYLQMNSLRAEDTAVYYCTLDGRDGWVAYWGQGTLVTVSSGGGGSGGGGSGGGGSQVVLTQPPSASGTPGQRVTISCKRNTGNIGSNYVNWYQQLPGTAPKLLIYRDDKRPDGVPDRFSGSKSGTSASLAISGLQSEDEADYYCQSYSSGFIFGGGTKLTVL
notes: scFv order VH-(GGGGS)3-VL on Fc chain A; chain B is Fc only; also called v21829; not shown: Fc-only chain B is also left out
B2: variant 19372, monovalent anti-CD3 scFv-heterodimeric Fc (VL hC3E-1_1L1b, VH hC3E-1) (Fc fusion)
scFv: EVQLVESGGGLVQPGGSLRLSCAASGVTFNYYGMSWIRQAPGKGLEWVASITNSGGRIYYPDSVKGRFTISRENTQKTLYLQMNSLRAEDTAVYYCTLDGRDGWVAYWGQGTLVTVSSGGGGSGGGGSGGGGSQLVLTQPPSASGTPGQRVTISCKRNTGNIGSNYVNWYQQLPGTAPKLLIYRDDKRPDGVPDRFSGSKSGTSASLAISGLQSEDEADYYCQSYSSGFIFGGGTKLTVL
notes: scFv order VH-(GGGGS)3-VL on Fc chain A; chain B is Fc only; also called v19372; not shown: The Fc-only chain B is not tied by number to this variant
B3: variant 21825, monovalent anti-CD3 scFv-heterodimeric Fc (VL hC3E-1_1L1d, VH hC3E-1(N53R_D102E)) (Fc fusion)
scFv: EVQLVESGGGLVQPGGSLRLSCAASGVTFNYYGMSWIRQAPGKGLEWVASITRSGGRIYYPDSVKGRFTISRENTQKTLYLQMNSLRAEDTAVYYCTLDGREGWVAYWGQGTLVTVSSGGGGSGGGGSGGGGSQVVLTQPPSASGTPGQRVTISCKRNTGNIGSNYVNWYQQLPGTAPKLLIYRDDKRPDGVPDRFSGSKSGTSASLAISGLQSEDEADYYCQSYSSGFIFGGGTKLTVL
notes: scFv order VH-(GGGGS)3-VL on Fc chain A; chain B is Fc only; also called v21825; not shown: Fc-only chain B is also left out
B4: variant 21827, monovalent anti-CD3 scFv-heterodimeric Fc (VL hC3E-1_1L1d, VH hC3E-1(N53S_D102E)) (Fc fusion)
scFv: EVQLVESGGGLVQPGGSLRLSCAASGVTFNYYGMSWIRQAPGKGLEWVASITSSGGRIYYPDSVKGRFTISRENTQKTLYLQMNSLRAEDTAVYYCTLDGREGWVAYWGQGTLVTVSSGGGGSGGGGSGGGGSQVVLTQPPSASGTPGQRVTISCKRNTGNIGSNYVNWYQQLPGTAPKLLIYRDDKRPDGVPDRFSGSKSGTSASLAISGLQSEDEADYYCQSYSSGFIFGGGTKLTVL
notes: scFv order VH-(GGGGS)3-VL on Fc chain A; chain B is Fc only; also called v21827; not shown: Fc-only chain B is also left out
B5: variant 19373, monovalent anti-CD3 scFv-heterodimeric Fc (VL hC3E-1_1L1a, VH hC3E-1) (Fc fusion)
scFv: EVQLVESGGGLVQPGGSLRLSCAASGVTFNYYGMSWIRQAPGKGLEWVASITNSGGRIYYPDSVKGRFTISRENTQKTLYLQMNSLRAEDTAVYYCTLDGRDGWVAYWGQGTLVTVSSGGGGSGGGGSGGGGSQFVLTQPPSASGTPGQRVTISCKRNTGNIGSNYVNWYQQLPGTAPKLLIYRDDKRPDGVPDRFSGSKSGTSASLAISGLQSEDEADYYCQSYSSGFIFGGGTKLTVL
notes: scFv order VH-(GGGGS)3-VL on Fc chain A; chain B is Fc only; also called v19373; not shown: The Fc-only chain B is not tied by number to this variant
B6: variant 19371, monovalent anti-CD3 scFv-heterodimeric Fc (VL hC3E-1_1L1c, VH hC3E-1) (Fc fusion)
scFv: EVQLVESGGGLVQPGGSLRLSCAASGVTFNYYGMSWIRQAPGKGLEWVASITNSGGRIYYPDSVKGRFTISRENTQKTLYLQMNSLRAEDTAVYYCTLDGRDGWVAYWGQGTLVTVSSGGGGSGGGGSGGGGSQIVLTQPPSASGTPGQRVTISCKRNTGNIGSNYVNWYQQLPGTAPKLLIYRDDKRPDGVPDRFSGSKSGTSASLAISGLQSEDEADYYCQSYSSGFIFGGGTKLTVL
notes: scFv order VH-(GGGGS)3-VL on Fc chain A; chain B is Fc only; also called v19371; not shown: The Fc-only chain B is not tied by number to this variant
B7: variant 19363, monovalent anti-CD3 scFv-heterodimeric Fc (VL hC3E-1_6L3a (D52N), VH hC3E-1) (Fc fusion, not shown: a dimerising Fc or GST; small tags and cut ends)
scFv: EVQLVESGGGLVQPGGSLRLSCAASGVTFNYYGMSWIRQAPGKGLEWVASITNSGGRIYYPDSVKGRFTISRENTQKTLYLQMNSLRAEDTAVYYCTLDGRDGWVAYWGQGTLVTVSSGGGGSGGGGSGGGGSQFVLTQPPSASGTPGQRVTISCKRNTGNIGSNYVNWYQQLPGTAPKTIIYRNDKRPDGVPDRFSGSIDSSSNSASLAISGLQSEDEADYYCQSYSSGFIFGGGTKLTVL
notes: scFv order VH-(GGGGS)3-VL on Fc chain A; chain B is Fc only; also called v19363

Columns and labels:
[1] = molecular target: T1, Recombinant CD3epsilon/delta Fc fusion protein (Sino Biological) (human, UniProt P07766 23-126; P04234 22-105); test: SPR (ProteOn XPR36), CD3epsilon/delta Fc fusion captured on anti-Fc chip, variant injected for 240 s; kinetic constants printed above the sensorgrams
T1 construct: Bought reagent; also called recombinant CD3 fusion protein; human CD3 antigen; not shown: Fc of the bought fusion protein; not described
Experimental: (§1) All SPR binding experiments were carried out using a BioRad ProteOn XPR36 instrument (Bio-Rad Laboratories, Hercules, Calif.) at 25° C. with 10 mM HEPES, 150 mM NaCl, 3.4 mM EDTA, and 0.05% Tween 20 at pH 7.4. Recombinant CD3epsilon/delta Fc fusion protein (Sino Biological, Wayne, Pa.) was captured on anti-Fc capture sensorchips. Purified antibodies were indirectly captured on the sensorchip by binding the recombinant CD3 fusion protein when injected at 25 μL/min for 240s (resulting in approx. 500 RUs) following a buffer injection to establish a stable baseline. Resultant KD values were determined from binding isotherms using the Equilibrium Fit model with reported values as the mean of three independent runs.

[2] = molecular target: T2, human CD3 expressed on T cells (Jurkat cells, human pan T cells/PBMC) (human, UniProt P07766 23-207); test: flow cytometry on human T cells
T2 construct: whole, on cells; On T cells CD3 epsilon stands in the CD3 complex with the gamma, delta and zeta chains and the T-cell receptor; only the epsilon chain is written out; also called CD3+ Jurkat cells; human T cells
Experimental: Frozen human pan T cells or PBMCs were thawed and incubated with either media or serial dilutions of the anti-CD3 scFv-Fc constructs for one hour at 4° C. Commercially available SP34-2 antibody was used as positive controls while untreated cultures were used as negative controls. Following incubation with the anti-CD3 scFv constructs, the cells were washed and stained with a panel of conjugated antibodies specific for CD4, CD8, and IgG-Fc. The samples were acquired on a flow cytometer and analyzed using FlowJo version 10.1 software.

[3] = molecular target: T1, Recombinant CD3epsilon/delta Fc fusion …; test: SPR (ProteOn XPR36), Equilibrium Fit, mean of three runs
Experimental: as §1

[4] = molecular target: T3, cynomolgus monkey CD3 expressed on T cells (cynomolgus pan T cells/PBMC, HSC-F cell line) (cynomolgus monkey, UniProt Q95LI5 22-198); test: flow cytometry on cynomolgus T cells
T3 construct: whole, on cells; On T cells in the CD3 complex with the other subunits; only the epsilon chain is written out; also called cyno CD3; cyno T cells
Experimental: Frozen Cynomolgus monkey PBMCs were thawed then washed with RPMI-1640 media. Pan T cells were then isolated from the PBMCs using a negative isolation kit (Miltenyi Biotec, San Diego, Calif.) as per the manufacturer's instructions. The pan T cells were incubated in media alone or media containing serial dilutions of the anti-CD3 scFv-Fc constructs for one hour at 4° C. Commercially available SP34-2 antibody was used as positive controls while untreated cultures were used as negative controls. Following incubation with the anti-CD3 scFv constructs, the cells were washed and stained with a panel of conjugated antibodies specific for CD4, CD8, and IgG-Fc. The samples were acquired on a flow cytometer and analyzed using FlowJo version 10.1 software.

[5] = molecular target: T2, human CD3 expressed on T cells (Jurkat …); test: cell ELISA on CD3+ Jurkat cells
Experimental: Cells were centrifuged and seeded in a 96-well filter plate in 50% complete culture medium/50% Blocking buffer. Equal volumes of 2× anti-CD3 scFv-Fc constructs or controls were added to cells and incubated for 1 hour. The plate was washed 4 times using vacuum filtration. An HRP-conjugated anti-human IgG Fc gamma specific secondary antibody was added to the wells and further incubated for 1 hour. The plate is washed 7 times by vacuum filtration followed by the addition of TMB substrate at room temperature. The reaction was stopped by adding 1 M sulfuric acid and supernatant was transferred into a clear 96-well plate. Absorbance (450 nm) was read on a Spectramax 340PC plate reader with path-check correction. Binding of the different scFv-Fc constructs to Jurkat cells and the apparent binding affinities are shown in FIG. 7 and Table 7, respectively.

T3 sequence (Q95LI5 22-198): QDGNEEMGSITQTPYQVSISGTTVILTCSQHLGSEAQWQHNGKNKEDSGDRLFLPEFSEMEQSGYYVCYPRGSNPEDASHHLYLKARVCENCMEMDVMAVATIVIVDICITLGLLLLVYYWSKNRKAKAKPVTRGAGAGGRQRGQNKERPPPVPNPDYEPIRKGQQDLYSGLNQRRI
T2 sequence (P07766 23-207): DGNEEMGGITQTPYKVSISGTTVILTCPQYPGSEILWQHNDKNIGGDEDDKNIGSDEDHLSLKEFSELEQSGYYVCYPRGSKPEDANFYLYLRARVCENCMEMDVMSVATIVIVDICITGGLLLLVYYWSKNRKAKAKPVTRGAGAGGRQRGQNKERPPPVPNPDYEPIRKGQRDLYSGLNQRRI
T1 sequence (P07766 23-126, stated change not applied, chain 1 of 2): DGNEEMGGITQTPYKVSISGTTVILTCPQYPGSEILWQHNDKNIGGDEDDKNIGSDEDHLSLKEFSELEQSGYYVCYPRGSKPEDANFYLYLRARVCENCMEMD
T1 sequence (P04234 22-105, stated change not applied, chain 2 of 2): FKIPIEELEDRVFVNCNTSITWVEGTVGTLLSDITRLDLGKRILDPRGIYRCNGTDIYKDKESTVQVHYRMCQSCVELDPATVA

Row | Binder | Kd [1] [nM] | koff [1] [s⁻¹] | kon [1] [M⁻¹ s⁻¹] | EC50 [2] [nM] | Kd [3] [nM] | EC50 [4] [nM] | EC50 [5] [nM]
1 | B1 | 3.12 | 0.00382 | 1.22e+06 | 0.4 | 3.06 | 1.6 | 0.65
2 | B2 |  |  |  | 0.9 | 3.1 | 9.3 | 3.47
3 | B3 |  |  |  |  |  | 7 | 
4 | B4 |  |  |  | 1.9 |  | 16.3 | 
5 | B5 |  |  |  |  | 3 |  | 0.99
6 | B6 |  |  |  | 0.5 | 7.1 | 3.4 | 1.72
7 | B7 | 6.62 | 0.00383 | 578000 | 0.7 | 6.6 | 7.1 | 1.45
